Legend:
Experiment in all cases: cell-based or functional assay
[1] = molecular target: LPA2 receptor (Homo sapiens, UniProt Q9HBW0)
[2] = molecular target: LPA1 receptor endogenous to Xenopus oocytes (Xenopus laevis)
[3] = molecular target: LPA5 receptor (Homo sapiens, UniProt Q9H1C0)
[4] = molecular target: LPA4 receptor (Homo sapiens, UniProt Q99677)
[5] = molecular target: T1, LPA3 receptor (wild-type) (human) (UniProt Q9UBY5)
T1 sequence (looked up): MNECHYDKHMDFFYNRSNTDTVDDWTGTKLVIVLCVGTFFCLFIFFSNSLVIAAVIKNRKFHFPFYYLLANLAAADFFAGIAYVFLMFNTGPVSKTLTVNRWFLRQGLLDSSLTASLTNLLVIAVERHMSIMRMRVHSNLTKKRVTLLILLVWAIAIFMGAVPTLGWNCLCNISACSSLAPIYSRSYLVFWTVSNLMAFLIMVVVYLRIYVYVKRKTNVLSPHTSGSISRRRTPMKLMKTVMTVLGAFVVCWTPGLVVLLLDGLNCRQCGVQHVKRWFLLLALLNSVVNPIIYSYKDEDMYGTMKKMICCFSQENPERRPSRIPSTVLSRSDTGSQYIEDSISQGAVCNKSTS

[6] = molecular target: LPA1 receptor (Homo sapiens, UniProt Q92633)
Chain of LPA1 receptor (Q92633 whole entry): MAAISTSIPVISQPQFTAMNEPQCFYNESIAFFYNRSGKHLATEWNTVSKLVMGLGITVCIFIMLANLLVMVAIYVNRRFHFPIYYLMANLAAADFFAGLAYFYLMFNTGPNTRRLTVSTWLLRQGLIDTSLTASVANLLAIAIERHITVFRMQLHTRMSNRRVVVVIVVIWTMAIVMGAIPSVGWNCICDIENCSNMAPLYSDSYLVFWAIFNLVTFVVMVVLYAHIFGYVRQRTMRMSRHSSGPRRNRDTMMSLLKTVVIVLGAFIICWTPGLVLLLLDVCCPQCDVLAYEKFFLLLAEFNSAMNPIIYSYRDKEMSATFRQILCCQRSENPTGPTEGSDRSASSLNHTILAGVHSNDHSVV

Chain of LPA5 receptor (Q9H1C0 whole entry): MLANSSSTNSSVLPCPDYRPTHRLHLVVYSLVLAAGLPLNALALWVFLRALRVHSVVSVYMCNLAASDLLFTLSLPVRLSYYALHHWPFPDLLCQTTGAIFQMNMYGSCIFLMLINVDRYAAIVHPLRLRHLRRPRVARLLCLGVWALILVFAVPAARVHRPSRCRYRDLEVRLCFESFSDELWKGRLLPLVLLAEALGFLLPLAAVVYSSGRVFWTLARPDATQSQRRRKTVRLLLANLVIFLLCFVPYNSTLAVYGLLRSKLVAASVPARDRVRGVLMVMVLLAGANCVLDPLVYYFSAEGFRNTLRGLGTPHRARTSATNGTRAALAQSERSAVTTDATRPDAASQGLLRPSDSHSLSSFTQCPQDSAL
Chain of LPA2 receptor (Q9HBW0 whole entry): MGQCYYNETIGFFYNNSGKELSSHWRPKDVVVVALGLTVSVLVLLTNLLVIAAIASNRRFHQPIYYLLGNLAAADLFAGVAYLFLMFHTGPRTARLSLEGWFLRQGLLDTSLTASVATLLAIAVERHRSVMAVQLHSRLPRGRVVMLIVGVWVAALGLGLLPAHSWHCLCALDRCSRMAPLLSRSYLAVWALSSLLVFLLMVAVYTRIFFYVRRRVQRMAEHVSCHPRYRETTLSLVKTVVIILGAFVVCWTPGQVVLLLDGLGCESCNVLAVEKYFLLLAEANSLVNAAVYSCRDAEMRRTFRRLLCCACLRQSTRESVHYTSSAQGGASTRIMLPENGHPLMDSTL
Chain of LPA4 receptor (Q99677 whole entry): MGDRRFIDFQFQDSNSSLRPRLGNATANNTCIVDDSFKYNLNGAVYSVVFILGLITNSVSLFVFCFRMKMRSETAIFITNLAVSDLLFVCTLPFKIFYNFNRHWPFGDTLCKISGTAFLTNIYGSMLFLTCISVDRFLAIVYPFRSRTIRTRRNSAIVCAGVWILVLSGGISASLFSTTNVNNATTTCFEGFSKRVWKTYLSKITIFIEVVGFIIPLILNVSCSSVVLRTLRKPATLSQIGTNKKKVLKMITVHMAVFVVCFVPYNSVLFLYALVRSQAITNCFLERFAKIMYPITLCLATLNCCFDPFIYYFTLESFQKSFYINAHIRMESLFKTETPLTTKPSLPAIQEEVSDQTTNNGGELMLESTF

B1: glycolipoprotein gintonin isolated from ginseng (ligand)
chain 1: MGLTGKLICQTGIKSDGDVFHELFGTRPHHVPNITPANIQGCDLHEGEFGKVGSVVIWNYSIDGNAMIAKEEIVAIDEEDKSVTFKVVEGHLFEEFKSIVFSVHVDTKGEDNLVTWSIDYEKLNESVKDPTSYLDFLLSVTRDIEAHHLPK
chain 2: RSDYPWAMFALRLQWPAGFCEVNNACDTKSLLNTFTIHGLYPYNAKGTPALYCDGTAFDVNSVSDFLAEMHLAWPSHETNTEDIQFWEHEWKKHGRCSEALLKQTDYFRTALAFRKAFDIVGLLNQEGIYPNNDLYRPKMIKEAIKKHLNAVPEIDFTKNENSEYVLTDINVCVNQQATRFVDCPTDDATDDYRLKFVRLPSKMKFADPRTNSII
modifications: three N-glycosylation sites (positions not numbered in the text); bound sugars and lipids
Question: What does the source list for B1?
Answer: EC50 of LPA receptor-mediated intracellular calcium increase in B103 cells [1]: 0.004 nM; increase of intracellular calcium level in receptor-expressing B103 cells, gintonin 1 µg/ml (Fura-2AM) [1]: 208 nM; ED50 of gintonin-induced NMDA receptor-mediated inward currents in NMDA receptor-expressing Xenopus oocytes [2]: 0.49 mg/L; ED50 of gintonin-induced activation of BKCa K+ channels expressed in Xenopus oocytes [2]: 0.71 mg/L; EC50 of LPA receptor-mediated intracellular calcium increase in B103 cells [3]: 0.046 nM; increase of intracellular calcium level in receptor-expressing B103 cells, gintonin 1 µg/ml (Fura-2AM) [3]: 298 nM; increase of intracellular calcium level in receptor-expressing B103 cells upon treatment with gintonin (Fura-2AM) [4]: 61.6 nM; EC50 of LPA receptor-mediated intracellular calcium increase in B103 cells [5]: 0.12 nM; increase of intracellular calcium level in receptor-expressing B103 cells, gintonin 1 µg/ml (Fura-2AM) [5]: 206 nM; EC50 of LPA receptor-mediated intracellular calcium increase in B103 cells [6]: 0.1 nM; increase of intracellular calcium level in receptor-expressing B103 cells, gintonin 1 µg/ml (Fura-2AM) [6]: 186 nM
